This is an account of results in patent US20190169308A1 (ALLIGATOR BIOSCIENCE, published 2019).

The target in test [1] is T1, cynomolgus 5T4 on transfected CHO cells (Macaca mulatta (cynomolgus), UniProt F7CT46 35-420).
T1 construct: also called cyno5T4; cy5T4
T1 sequence: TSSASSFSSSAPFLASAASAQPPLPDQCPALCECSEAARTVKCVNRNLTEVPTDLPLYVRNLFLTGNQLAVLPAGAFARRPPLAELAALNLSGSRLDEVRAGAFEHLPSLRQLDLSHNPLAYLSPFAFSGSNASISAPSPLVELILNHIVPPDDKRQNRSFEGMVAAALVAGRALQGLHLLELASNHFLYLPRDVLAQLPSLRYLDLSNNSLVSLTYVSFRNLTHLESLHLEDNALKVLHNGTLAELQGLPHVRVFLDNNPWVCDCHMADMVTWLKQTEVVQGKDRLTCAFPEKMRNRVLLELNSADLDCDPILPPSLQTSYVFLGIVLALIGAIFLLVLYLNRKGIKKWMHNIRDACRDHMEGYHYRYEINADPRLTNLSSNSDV
The test can be described thus: flow cytometry, 5T4-transfected CHO cells. As to the method: The potency of 5T4 antibodies in binding to cynomolgus 5T4 was determined by flow cytometry. CHO cells were stably transfected with […] (cynomolgus) 5T4. […] Samples were analysed either on a FACSCalibur or a FACSverse (BD Biosciences, Heidelberg, Germany) and mean fluorescence intensity (MFI) determined. […] To compare the EC50 values between human and cynomolgus 5T4, the cy5T4/hu5T4 ratio was calculated from the experiment with the full dose-response.
A general note: In flow cytometry, cells or beads pass a laser one at a time.

Test [2] has as its target T2, human 5T4 on transfected cells (human, UniProt Q13641 32-420).
T2 construct: whole, on cells; also called B16-5T4; CHOh5T4
T2 sequence (looked up): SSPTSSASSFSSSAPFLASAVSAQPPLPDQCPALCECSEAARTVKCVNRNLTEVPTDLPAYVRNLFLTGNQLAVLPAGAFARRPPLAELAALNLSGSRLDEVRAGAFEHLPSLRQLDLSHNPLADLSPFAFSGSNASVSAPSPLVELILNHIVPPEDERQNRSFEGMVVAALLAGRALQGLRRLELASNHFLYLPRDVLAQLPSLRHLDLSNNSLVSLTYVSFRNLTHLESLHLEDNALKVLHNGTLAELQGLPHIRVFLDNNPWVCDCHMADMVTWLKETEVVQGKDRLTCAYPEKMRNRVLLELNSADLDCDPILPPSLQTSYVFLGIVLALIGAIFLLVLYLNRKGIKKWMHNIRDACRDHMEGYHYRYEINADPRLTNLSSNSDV
The test can be described thus: flow cytometry, human 5T4-transfected CHO cells. How it is done:
Analysis of 5T4 mAb binding with flow cytometry was performed using 5T4-transfected cell lines and as negative control, mock transfected cells. Three different transfected cell lines used were used for this study; B16, A9 and CHO, transfected either with a 5T4 construct or with an empty vector control construct. Cells were stained with 5T4 antibodies diluted in FACS buffer (PBS, 0.5% BSA and 0.02% NaN₃). […] Samples were analysed either on a FACSCalibur or a FACSverse (BD Biosciences, Heidelberg, Germany) and mean fluorescence intensity (MFI) determined.
In a new attempt to calculate EC50 with flow cytometry a 5T4 mAb dose response experiment was performed using CHO cells stably transfected with human 5T4.

The target in test [3] is T3, human/mouse 5T4 chimera E1.
T3 construct: on transfected CHO cells
The test can be described thus: flow cytometry, cells with human/mouse 5T4 chimera. As to the method: (§1) Epitope mapping was performed by investigation of loss of binding by the antibodies using a panel of human/mouse chimeric 5T4 constructs by flow cytometry. […] Two strategies were used for the epitope mapping as illustrated in FIG. 5. In one approach, seven human/mouse 5T4 chimeras were constructed based on dividing 5T4 into seven different domains (FIG. 5). By replacing each domain with the corresponding mouse sequence seven human/mouse 7 5T4 human/mouse chimeras were generated. The chimeras were generated using the human protein 5T4 sequence NP_006661.1 (reference mRNA sequence NM_006670.4) and the corresponding mouse sequence NP_035757.2 (reference mRNA sequence NM_011627.4). The human/mouse chimeric DNA constructs, as well as human and mouse wild-type 5T4, were cloned into pcDNA3.1 expression vectors. […] As controls human 5T4 and mouse 5T4-transfected cells were used. For flow cytometric analysis, cells were stained with different 5T4 antibodies diluted in FACS buffer (PBS, 0.5% BSA). […] Samples were analysed by FACSverse (BD Biosciences, Heidelberg, Germany) and % positive cells were determined. To compensate for variations in % 5T4 positive cells in the various transfected populations, binding levels were normalized within each chimera by dividing % positive cells for each clone with % positive cells for the clones resulting in the highest % positive cells (% pos cellscloneX/% positive cellsₘₐₓ). A normalized value ≤0.75 was defined as mAb binding being dependent on the replaced region, whereas a normalized value ≤0.25 was defined as complete dependence.

In test [4] the target is T4, human/mouse 5T4 chimera E2.
T4 construct: on transfected CHO cells
Kind of test: flow cytometry, cells with human/mouse 5T4 chimera. How it is done: as §1

The target of test [5] is T5, human/mouse 5T4 chimera E3.
T5 construct: on transfected CHO cells
The test can be described thus: flow cytometry, cells with human/mouse 5T4 chimera. How it is done:
as §1

The target in test [6] is T6, human/mouse 5T4 chimera E4.
T6 construct: on transfected CHO cells
The test can be described thus: flow cytometry, cells with human/mouse 5T4 chimera. How it is done:
as §1

The target in test [7] is T7, human/mouse 5T4 chimera E5.
T7 construct: on transfected CHO cells
Kind of test: flow cytometry, cells with human/mouse 5T4 chimera. As to the method:
as §1

Test [8] addresses T8, human/mouse 5T4 chimera E6.
T8 construct: on transfected CHO cells
The test can be described thus: flow cytometry, cells with human/mouse 5T4 chimera. As to the method: as §1

Test [9] has as its target T9, human/mouse 5T4 chimera E7.
T9 construct: on transfected CHO cells
Kind of test: flow cytometry, cells with human/mouse 5T4 chimera. As to the method: as §1

A further test has as its target T10, 5T4 (SPR antigen) (UniProt Q13641 32-355, limits assumed, biotinylated on the MASS-1 platform).
T10 construct: also called biotinylated 5T4
T10 sequence (looked up): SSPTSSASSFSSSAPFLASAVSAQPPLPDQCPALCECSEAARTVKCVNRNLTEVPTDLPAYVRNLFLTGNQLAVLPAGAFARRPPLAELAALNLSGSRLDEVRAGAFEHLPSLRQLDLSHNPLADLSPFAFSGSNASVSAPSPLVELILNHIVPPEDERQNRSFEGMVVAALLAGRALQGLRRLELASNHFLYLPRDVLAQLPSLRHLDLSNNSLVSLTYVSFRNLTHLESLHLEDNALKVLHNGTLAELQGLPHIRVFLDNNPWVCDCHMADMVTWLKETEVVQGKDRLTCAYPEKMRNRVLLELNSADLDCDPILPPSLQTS
The test can be described thus: SPR Biacore 3000, amine-coupled 5T4, mAb injected (bivalent). How it is done: Binding kinetics of the 5T4-specific mAbs have been studied using two different SPR-based platforms, the Biacore 3000 (GE Healthcare) and the MASS-1 platform (Sierra Sensors). Briefly, 5T4 was captured at the sensor chip surface either via direct amine coupling (Biacore platform) or using a streptavidin coated chip and biotinylated 5T4 (MASS-1 platform). The different 5T4-specific mAbs were then injected over the chip in increasing concentrations and the association and dissociation rates studied in real time. A 1:1 Langmuir model was used for curve fitting.
(In general: In SPR one partner is held on a chip, and binding of the other changes the refractive index at the surface.)

B1: 1210/1211 (antibody, V domains shown)
VH: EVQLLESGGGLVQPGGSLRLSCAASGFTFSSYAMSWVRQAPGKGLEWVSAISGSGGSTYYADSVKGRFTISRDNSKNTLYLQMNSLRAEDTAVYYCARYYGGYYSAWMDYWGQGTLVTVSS
VL: DIQMTQSPSSLSASVGDRVTITCRASQSISSYLNWYQQKPGKAPKLLIYAASSLQSGVPSRFSGSGSGTDFTLTISSLQPEDFATYYCQQTYGYLHTFGQGTKLEIK
As a reminder, the EC50 is the midpoint of the concentration-response curve. Low readings indicate greater potency, high ones weaker potency. What is called koff is a measure of how fast the partners let go of each other. One may read the kon as the rate constant with which the complex forms. As to B1, in [1], the “Ratio EC50cyno5T4/h5T4” value was 0.9. In test [2], this molecule registered a concentration for a half-maximal effect (EC50) of 0.81 nM. The “normalized % positive cells” value was 0.99 in [3]; 0.02 in test [4]; 0.9 in test [5]; 0.69 in test [6]; 0.89 in [7]; 0.89 in [8]. In addition, the “normalized % positive cells” value in test [9] was 0.96. The molecule also had a Kd with 5T4 (SPR antigen) of 0.2 nM. Besides, the off-rate constant (koff) in the test with 5T4 (SPR antigen) stood at 0.0001 s⁻¹. In the test with 5T4 (SPR antigen), this molecule gave an on-rate (kon) of 500000 M⁻¹ s⁻¹.

B2: 1206/1207 (antibody, V domains shown)
VH: EVQLLESGGGLVQPGGSLRLSCAASGFTFSGSSMSWVRQAPGKGLEWVSSIYYSGSGTYYADSVKGRFTISRDNSKNTLYLQMNSLRAEDTAVYYCARYGRNVHPYNLDYWGQGTLVTVSS
VL: DIQMTQSPSSLSASVGDRVTITCRASQSISSYLNWYQQKPGKAPKLLIYAASSLQSGVPSRFSGSGSGTDFTLTISSLQPEDFATYYCQQGYYYLPTFGQGTKLEIK
For the molecule B2, the “Ratio EC50cyno5T4/h5T4” value in [1] was found to be 3. This molecule came in with an EC50 in test [2] of 0.51 nM. For the same molecule, the “normalized % positive cells” value worked out at 0.96 in test [3]; 0.74 in test [4]; 0.25 in test [5]; 0.52 in test [6]; 0.9 in [7]; 0.94 in test [8]. Besides, the “normalized % positive cells” value in test [9] was 0.94. In the test with 5T4 (SPR antigen), this molecule showed a Kd of 2.3 nM. Also, the off-rate (koff) with 5T4 (SPR antigen) was 0.00028 s⁻¹. The kon in the test with 5T4 (SPR antigen) turned out to be 130000 M⁻¹ s⁻¹.
